Assay results: patent US20230381350A1 (PRECIRIX N V, published 2023)
One block for each binder: values may come before it.

Assays:
[1] = target: T1, human DPP IV recombinant protein (human, UniProt P27487 29-766); assay: ELISA, coated human DPP IV, HA-His6-tagged VHH extract, anti-HA detection
T1 construct: extracellular domain; Bought protein; also called Dipeptidyl amino-peptidase IV
Protocol: (§1) The day before measurement, 0.1 μg recombinant protein at a concentration of 1 μg/mL in 100 mM NaHCO₃, pH 8.2 was coated in a 96-well ELISA plate (Nunc MaxiSorp). Per VHH clone also a blank coated well was foreseen (only buffer). The wells were overcoated with protein-free T20 (PBS) blocking buffer (Pierce). After washing with PBS, pH7.4, 0.05% Tween, VHH-containing bacterial freeze-thaw extract was added to every well. Binding of HA-His₆-tagged VHHs was detected by using mouse anti-HA.11 epitope tag (clone 16B12, Biolegend) as the primary Ab and goat anti-mouse IgG (whole molecule) alkaline phosphatase conjugate (Sigma-Aldrich) as the secondary Ab, with thorough washing with PBS, pH 7.4, 0.05% Tween in between. Signals were developed using phosphatase substrate (Sigma-Aldrich) in AP blot buffer (100 mM NaCl, 50 mM MgCl₂, 100 mM Tris, pH 9.5). The absorbance was determined at 405 nm using an absorbance microplate reader (Molecular Devices). Per clone the ratio was determined between the absorbance in the antigen-coated well versus the well without antigen.

[2] = target: T2, human FAP recombinant protein (human, UniProt Q12884 26-760); assay: ELISA, coated human FAP recombinant protein, HA-His6-tagged VHH extract, anti-HA detection
T2 construct: The protein was biotinylated with sulfo-NHS-SS-biotin for bio-layer interferometry; also called extracellular domain of human FAP with N-terminal His6-tag
T2 sequence: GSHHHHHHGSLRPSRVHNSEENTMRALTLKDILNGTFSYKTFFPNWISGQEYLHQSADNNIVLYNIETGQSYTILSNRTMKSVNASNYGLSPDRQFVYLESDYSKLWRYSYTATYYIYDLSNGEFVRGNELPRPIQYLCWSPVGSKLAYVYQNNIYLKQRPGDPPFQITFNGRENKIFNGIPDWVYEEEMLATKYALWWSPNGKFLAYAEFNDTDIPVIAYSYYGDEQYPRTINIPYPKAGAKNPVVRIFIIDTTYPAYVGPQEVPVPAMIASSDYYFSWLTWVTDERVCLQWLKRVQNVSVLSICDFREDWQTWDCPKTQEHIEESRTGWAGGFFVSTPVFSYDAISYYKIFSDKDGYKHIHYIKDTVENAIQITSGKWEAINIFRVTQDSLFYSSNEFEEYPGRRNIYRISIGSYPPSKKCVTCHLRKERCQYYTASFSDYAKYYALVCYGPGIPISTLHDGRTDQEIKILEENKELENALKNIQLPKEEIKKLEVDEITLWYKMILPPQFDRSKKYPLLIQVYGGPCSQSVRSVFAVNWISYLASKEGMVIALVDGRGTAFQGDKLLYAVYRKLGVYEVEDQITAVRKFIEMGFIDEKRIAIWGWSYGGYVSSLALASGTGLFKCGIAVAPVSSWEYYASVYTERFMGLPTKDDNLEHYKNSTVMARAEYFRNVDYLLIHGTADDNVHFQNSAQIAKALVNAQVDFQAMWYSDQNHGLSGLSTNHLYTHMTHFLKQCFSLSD
Protocol: as §1

[3] = target: T3, murine FAP recombinant protein (murine, UniProt P97321 26-761); assay: ELISA on coated recombinant protein, VHH-containing bacterial extract, anti-HA detection, signal-to-background ratio
T3 construct: The protein was biotinylated for bio-layer interferometry; also called extracellular domain of murine FAP with N-terminal His6-tag
T3 sequence: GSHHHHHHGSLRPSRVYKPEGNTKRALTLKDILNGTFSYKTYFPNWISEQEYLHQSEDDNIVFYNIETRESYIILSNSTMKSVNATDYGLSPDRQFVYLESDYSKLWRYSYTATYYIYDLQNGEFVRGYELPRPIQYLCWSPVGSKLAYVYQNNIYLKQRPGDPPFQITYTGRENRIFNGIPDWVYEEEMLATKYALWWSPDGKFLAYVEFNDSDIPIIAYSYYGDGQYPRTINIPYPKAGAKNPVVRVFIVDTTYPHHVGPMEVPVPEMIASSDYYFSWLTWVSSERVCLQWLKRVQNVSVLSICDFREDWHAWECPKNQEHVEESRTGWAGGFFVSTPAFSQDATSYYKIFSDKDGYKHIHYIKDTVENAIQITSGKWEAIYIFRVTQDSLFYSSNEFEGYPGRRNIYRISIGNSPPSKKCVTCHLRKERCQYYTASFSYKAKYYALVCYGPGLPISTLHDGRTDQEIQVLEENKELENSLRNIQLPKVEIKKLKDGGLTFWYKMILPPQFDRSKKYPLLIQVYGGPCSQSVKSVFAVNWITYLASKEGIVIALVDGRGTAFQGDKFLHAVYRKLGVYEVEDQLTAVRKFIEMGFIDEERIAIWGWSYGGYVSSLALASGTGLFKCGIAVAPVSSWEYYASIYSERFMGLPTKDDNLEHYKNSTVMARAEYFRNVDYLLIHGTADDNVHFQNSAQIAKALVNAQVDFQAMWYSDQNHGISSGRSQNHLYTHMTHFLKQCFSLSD
Protocol: as §1

[4] = target: T1, human DPP IV recombinant protein; assay: as above
Protocol: as §1

[5] = target: T4, murine FAP expressed on cells (murine, UniProt P97321 1-761); assay: flow cytometry on murine FAP-transfected HEK293 cells, VHH-containing bacterial extract, anti-HA and PE-conjugated secondary detection, Δmfi against cells without VHH
T4 construct: also called murine FAP cell surface protein
T4 sequence: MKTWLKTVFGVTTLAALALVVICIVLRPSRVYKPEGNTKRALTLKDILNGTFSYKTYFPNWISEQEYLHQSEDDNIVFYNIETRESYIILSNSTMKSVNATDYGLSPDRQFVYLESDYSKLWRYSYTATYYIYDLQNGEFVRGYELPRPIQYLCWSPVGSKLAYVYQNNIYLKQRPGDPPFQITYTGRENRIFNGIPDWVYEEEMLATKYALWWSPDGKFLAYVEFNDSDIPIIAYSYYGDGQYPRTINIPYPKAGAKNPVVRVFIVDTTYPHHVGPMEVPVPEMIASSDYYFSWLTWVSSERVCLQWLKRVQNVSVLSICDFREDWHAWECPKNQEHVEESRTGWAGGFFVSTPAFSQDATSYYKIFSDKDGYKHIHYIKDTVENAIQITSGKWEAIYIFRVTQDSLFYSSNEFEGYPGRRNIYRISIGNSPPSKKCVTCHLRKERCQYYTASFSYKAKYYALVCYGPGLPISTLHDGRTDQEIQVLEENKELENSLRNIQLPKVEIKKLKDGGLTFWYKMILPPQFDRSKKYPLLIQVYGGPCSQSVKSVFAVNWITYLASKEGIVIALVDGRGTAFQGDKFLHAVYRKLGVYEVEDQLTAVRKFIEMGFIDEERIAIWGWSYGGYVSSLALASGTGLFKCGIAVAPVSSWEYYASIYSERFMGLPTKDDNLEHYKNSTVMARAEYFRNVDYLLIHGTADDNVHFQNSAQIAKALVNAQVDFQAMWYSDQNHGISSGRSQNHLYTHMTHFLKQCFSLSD
Protocol: The cell binding was tested by flow cytometry experiments. Per test condition 1×10⁵ to 2×10⁵ cells, washed in PBS, 0.5% BSA, were pelleted in the well of a 96-well U-bottom plate. The cell pellets were resuspended and incubated with the VHH-containing bacterial freeze-thaw extracts (diluted in PBS, 0.5% BSA). Binding of HA-His₆-tagged VHHs was detected by using mouse anti-HA.11 epitope tag (clone 16B12, Biolegend) as the primary detection antibody and PE-conjugated rat anti-mouse IgG1 (clone A85-1, BD Pharmingen) as the secondary detection antibody, with washing with PBS, 0.5% BSA in between, and finally resuspended in PBS, 0.5% BSA.
Flow cytometry was performed on a FACS Canto II (BD Biosciences). Data were analyzed using FlowJo software. Based on the forward scatter-side scatter plot a single cell gate was drawn. The median fluorescence intensity was determined on a histogram for the phycoerythrin signal of the single cells. The difference in median fluorescence intensity (A mfi) was calculated relative to a test condition without incubation of VHHs (cells+primary Ab+secondary Ab), and are shown in FIG. 3.

[6] = target: T2, human FAP recombinant protein; assay: bio-layer interferometry, biotinylated human FAP on sensor
Protocol: The kinetic parameters of antigen binding by purified VHHs were determined via bio-layer interferometry with an Octet RED96 instrument (ForteBio). The assay was performed at 25° C. with shaking at 1000 rpm. Streptavidin coated SA sensors were equilibrated in assay buffer (HBS supplemented with 0.5% BSA, 0.1% Tween), before loading for 5 min with the biotinylated FAP recombinant protein at a concentration of 5 μg/ml. His₆-tagged VHHs were analyzed in a threefold serial dilution from 30 nM to 0.4 nM in assay buffer (except for VHH B3 binding murine FAP recombinant protein, for which a fivefold serial dilution from 1000 nM to 1.6 nM was employed). First the baseline was measured for 180 s in assay buffer, followed by 5 subsequent association phases of 180 s with the VHH preparations in increasing order of concentration, with 75 s intermediate dissociation phases in assay buffer in between, and a final dissociation phase in assay buffer of 30 min. […]
Binding curves were exported and analyzed using the BIAevaluation analysis software (GE Healthcare). […]
(§2) Table 7 gives an overview of the kinetic parameters of antigen binding for His₆-tagged VHHs B1, B2, B3 and B4 (SEQ ID NO: 21-24), as determined by bio-layer interferometry with biotinylated human or murine FAP recombinant protein that was loaded on the sensor.

[7] = target: T2, human FAP recombinant protein; assay: bio-layer interferometry (Octet RED96), biotinylated human FAP on streptavidin sensor, kinetic titration, 25 °C
Protocol: (§3) The kinetic parameters of antigen binding by purified VHHs were determined via bio-layer interferometry with an Octet RED96 instrument (ForteBio). The assay was performed at 25° C. with shaking at 1000 rpm. Streptavidin coated SA sensors were equilibrated in assay buffer (HBS supplemented with 0.5% BSA, 0.1% Tween), before loading for 5 min with the biotinylated FAP recombinant protein at a concentration of 5 μg/ml. His₆-tagged VHHs were analyzed in a threefold serial dilution from 30 nM to 0.4 nM in assay buffer (except for VHH B3 binding murine FAP recombinant protein, for which a fivefold serial dilution from 1000 nM to 1.6 nM was employed). First the baseline was measured for 180 s in assay buffer, followed by 5 subsequent association phases of 180 s with the VHH preparations in increasing order of concentration, with 75 s intermediate dissociation phases in assay buffer in between, and a final dissociation phase in assay buffer of 30 min. In every assay a reference sensor loaded with FAP recombinant protein was included that was incubated in assay buffer during the association phases.
(§4) Binding curves were exported and analyzed using the BIAevaluation analysis software (GE Healthcare). First the y-axes of the different curves were aligned to the median of the last 5 s of the baseline measurement. Subsequently, the sensorgram of the reference sensor was subtracted from all other sensorgrams. The resulting binding curve was fitted using a general fit with the ‘kinetic titration with drift’ binding model (1:1 (antigen:analyte) model; Karlsson, R. et al (2006), Analyzing a kinetic titration series using affinity biosensors. Analytical Biochemistry 349: 136-147), with Rmax fitted global, RI local and drift set to 0.
as §2

[8] = target: T3, murine FAP recombinant protein; assay: bio-layer interferometry (Octet RED96), biotinylated murine FAP on streptavidin sensor, kinetic titration, 25 °C
Protocol: as §3, §4, §2

T1 sequence (P27487 29-766): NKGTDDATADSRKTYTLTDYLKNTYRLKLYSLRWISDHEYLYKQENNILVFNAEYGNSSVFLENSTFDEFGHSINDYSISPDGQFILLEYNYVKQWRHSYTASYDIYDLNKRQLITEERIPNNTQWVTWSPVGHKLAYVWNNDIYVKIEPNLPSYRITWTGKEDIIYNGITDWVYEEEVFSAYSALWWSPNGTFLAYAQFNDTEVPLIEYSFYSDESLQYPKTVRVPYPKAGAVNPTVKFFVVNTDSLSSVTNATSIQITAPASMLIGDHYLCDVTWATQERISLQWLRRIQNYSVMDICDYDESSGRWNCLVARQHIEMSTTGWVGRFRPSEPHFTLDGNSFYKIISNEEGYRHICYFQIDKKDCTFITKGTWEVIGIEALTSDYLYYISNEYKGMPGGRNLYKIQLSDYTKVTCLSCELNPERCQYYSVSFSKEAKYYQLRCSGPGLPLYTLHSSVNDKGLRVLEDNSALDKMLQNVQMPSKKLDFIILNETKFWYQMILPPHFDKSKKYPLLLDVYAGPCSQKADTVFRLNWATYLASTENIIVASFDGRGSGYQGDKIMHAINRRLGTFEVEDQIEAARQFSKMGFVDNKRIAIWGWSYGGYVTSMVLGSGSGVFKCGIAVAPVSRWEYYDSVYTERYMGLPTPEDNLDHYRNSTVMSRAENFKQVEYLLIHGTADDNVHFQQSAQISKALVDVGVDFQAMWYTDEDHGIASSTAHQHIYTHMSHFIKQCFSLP

signal-to-background ratio [1]: ~1 | signal-to-background ratio [2]: > 25 | binding result [3]: no binding | binding result [4]: no binding | binding result [5]: no binding
B1: HA-His6-tagged VHH B3 (VHH)
VHH: QVQLQESGGGLVQAGGSLRLSCAVSGRLFSTNAMGWYRQAPGKQRELVAGITGGDRSNYADSVKGRFTISRDNGKNTLYLQMNSLKPEDTAVYYCNFYPPIVGDYWGQGTQVTVSS
notes: also called B3 with HA-His6-tag

Kd [6]: < 0.05 nM | Kd [7]: 0.0378 nM | koff [7]: 2.7e-05 s⁻¹ | kon [7]: 700000 M⁻¹ s⁻¹ | Kd [8]: 0.742 nM | koff [8]: 0.0014 s⁻¹ | kon [8]: 1.9e+06 M⁻¹ s⁻¹
B2: His6-tagged VHH B1 (VHH)
VHH: DVQLVESGGGLVQPGGSLRLSCVASGRLSSSNSMAWYRQVPGKRRELVAGITGGGETNYADFVGGRFTISRDNAKNGLYLQLNGLKPEDTAAYYCNFWPPLINYWGQGTQVTVSS
notes: Purified, unlabelled; used in bio-layer interferometry; also called B1 with His6-tag
